From patent US20230040275A1, “SECRETABLE PROTEIN INDUCED IMMUNE TOLERIZATION AND TREATMENT OF AUTOIMMUNE, ALLERGIC AND OTHER DISEASES AND DISORDERS” (SPARK THERAPEUTICS, INC., priority 2019, published 2023)

Tested on: Huh7 cells
Test: Plasma membrane retention of full-length MOG in transformed Huh7 cells
Type: cell-based
Details: 72 hr post-transfection, leaders WT, Sp7, HC7s
Procedure: To examine the secretability of the full-length MOG protein the plasma membrane and cell lysate and media of transformed Huh7 cells were examined for MOG expression. Huh7 cells were grown to ˜80% confluency and transformed using plasmids expressing full-length myelin oligodendrocyte glycoprotein (MOG) with various leader sequences: Wildtype (WT; native MOG leader), human chymotrypsinogen B2 signal peptide (“Sp7”; 18 amino acid signal peptide of NCBI reference sequence NP_001020371), or a combination of WT with the heavy chain 7 sequence (HC7s; Haryadi et al., PloS ONE 10(2): e0116878. doi:10.1371/journal.pone.0116878 (2015)). Cells and media were harvested 72 hr post-transfection. Plasma membrane fractions from cells were enriched as described (Nishiumi et al., Biosci. Biotechnol. Biochem. 71 (9), 2343-2346, (2007)) Briefly, cells were harvested in modified Buffer A (50 mM Tris, 0.5 mM DTT) with protease inhibitors (cOmplete™ tablets, Roche) and 0.1% Triton X100. The cells were sheared by passage through a 25-gauge needle; 3 times. The homogenate was centrifuged for 10 min at 1000×g at 4° C. The supernatant was harvested as post-plasma membrane (PPM) fraction. […] Standard WES parameters were used, and samples were analyzed on Compass Software (ProteinSimple).

B1: full-length MOG: full-length myelin oligodendrocyte glycoprotein expressed from plasmids with WT, Sp7 or HC7s leader sequences (protein, UniProt Q16653 1-247, looked up)
chain: MASLSRPSLPSCLCSFLLLLLLQVSSSYAGQFRVIGPRHPIRALVGDEVELPCRISPGKNATGMEVGWYRPPFSRVVHLYRNGKDQDGDQAPEYRGRTELLKDAIGEGKVTLRIRNVRFSDEGGFTCFFRDHSYQEEAAMELKVEDPFYWVSPGVLVLLAVLPVLLLQITVGLIFLCLQYRLRGKLRAEIENLHRTFDPHFLRVPCWKITLFVIVPVLGPLVALIICYNWLHRRLAGQFLEELRNPF
modifications: full-length
  localisation of full-length MOG (plasma membrane vs cell lysate and media): retained in the plasma membrane
Listed as Mature MOG
  localisation of full-length MOG (plasma membrane vs cell lysate and media): enriched in the plasma membrane
